Assay results reported in US20120135912A1 (PERSEID THERAPEUTICS, published 2012).

Assays:
[1] = biological target: T1, human VLA4-Fc (alpha4-Fc/beta1-Fc heterodimer) (human); assay: ELISA, VLA4-Fc coated, 1 mM MnCl2; from EC50 values
T1 construct: Soluble heterodimer from CHO cells, Protein A purified; also called VLA-Fc
Procedure: The relative binding affinities of various 2D-VCAM-1 variants to immobilized VLA4-Fc (α4-β1-Fc) heterodimer, relative to a control protein (e.g., Q38L-2D-VCAM-1 or to human 2D-VCAM-1), were deter using a solid-phase ELISA assay. MAXISORP™ ELISA plates (NUNC) were coated overnight at 4° C. with 50 ul VLA4-Fc heterodimer, 2 ug/ml in TBS-M (TBS (25 mM Tris-HCl pH 7.5, 150 mM NaCl) with 1 mM MnCl2), washed with TBS-T (TBS with 0.05% TWEEN-20), blocked with 200 ul 3% milk in TBS-M for 1 h at room temperature, and washed again with TBS-T. A four-fold dilution series of the purified 2D-VCAM variants to be assayed was made in COSTAR U-bottom plates in TBS-TMC (TBS with 0.05% Tween-20, 1 mM MnCl2, and 1% casein; Sigma) with a starting concentration of 8.2 uM (200 ug/ml). The dilution series was transferred into the ELISA plate which was incubated at room temperature for 2 h and subsequently washed with TBS-T. Bound 2D-VCAM protein was detected by incubation with 0.5 ug/ml of biotinylated anti-human VCAM antibody (R&D Systems, Catalog No. BAF809) in TBS-TMC for 1 h at room temperature followed by a TBS-MT (TBS plus 1 mM MnCl2 and 0.02% TWEEN-20) wash and subsequent incubation with 1:2000 dilution of streptavidin-HRP (BD Biosciences, Catalog No. 554066) in TBS-TMC for 30 min at room temperature. […] Typical development times ranged from […] and development was stopped by addition of 50 ul 2M H₂SO₄ (EM, Catalog No. SX1244-75). […] Fold-improvement in binding was calculated relative to a control protein (e.g., Q38L-2D-VCAM-1 or human 2D-VCAM-1) assayed on the same plate.

[2] = biological target: T2, human LPAM-1-Fc (alpha4-Fc/beta7-Fc heterodimer) (human); assay: ELISA, LPAM-1-Fc coated, 1 mM MnCl2; from EC50 values
T2 construct: Soluble heterodimer from CHO cells, Protein A purified
Procedure: The relative binding affinities of various 2D-VCAM variant proteins to immobilized LPAM-1-Fc (α4-Fc/β-7-Fc) heterodimer, relative to a control protein (e.g., Q38L-2D-VCAM-1 or human 2D-VCAM-1), were determined using a solid-phase ELISA assay. MAXISORP™ ELISA plates (NUNC) were coated overnight at 4° C. with 50 ul LPAM-1-Fc heterodimer (2 ug/ml in TBS-M, TBS (25 mM TRIS-HCl pH 7.5, 150 mM NaCl with 1 mM MnCl2), washed with TBS-T (TBS with 0.05% Tween-20), blocked with 200 ul 3% milk in TBS-M for 1 hr at room temperature, and washed again with TBS-T. A four-fold dilution series of the purified 2D-VCAM-1 variants to he assayed was made in COSTAR U-bottom plates in TBS-TMC (TBS with 0.05% Tween-20, 1 mM MnCl2 and 1% casein; Sigma) with a starting concentration of 8.2 uM (200 ug/ml). The dilution, series were transferred into the ELISA plate which was incubated at room temperature for 2 h and subsequently washed with TBS-T. Bound 2D-VCAM-1 protein was detected by incubation with 0.5 ug/ml of biotinylated anti-human VCAM antibody (R&D Systems, Catalog No. BAF809) in TBS-TMC for 1 h at room temperature followed by a TBS-T wash and subsequent incubation with 1:2000 dilution of streptavidin-HRP (BD Biosciences, Catalog No. 554066) in TBS-TMC for 30 min at room temperature. […] Typical development times ranged from 5-15 min and development was stopped by addition of 50 ul 2M H₂SO₄ (EM, Catalog No. SX1244-75). […] Fold-improvement in binding was calculated relative to a control protein (Q38L-2D-VCAM-1) assayed on the same plate.

[3] = biological target: T1, human VLA4-Fc (alpha4-Fc/beta1-Fc …); assay: SPR (BIACORE), VLA4-Fc captured by anti-human IgG, 1 mM MnCl2, 1:1 Langmuir
Procedure: (§1) The kinetic 2D-VCAM-1 assay measures binding kinetics of a dimeric ligand (e.g., VLA-Fc fusion protein or LPAM-1-Fc fusion protein) coated to sensor chips and monomeric analyte (e.g., 2D-VCAM-1 variant polypeptides) in the mobile phase. Goat anti-human IgG antibody (Jackson ImmunoResearch, Catalog No. 105-005-098) was immobilized on CM-5 sensor chips (GE Healthcare, Catalog No. BR-1000-14) according to the manufacturer's protocol. Antibody was diluted to 30 μg/ml in immobilization buffer (10 mM sodium acetate, pH 5.0 (GE Healthcare, Catalog No. BR-1003-51)). […] Un-reacted sites were quenched with 35 μl of 1 M ethanolamine-HCl pH 8.5 (GE Healthcare, Catalog No. BR-1000-50). This procedure typically yielded 15,000 response units (RU) of coupled antibody. VLA4-Fc or LPAM-1-Fc, prepared as described in Examples 3 and 4, respectively, were bound to antibody-coated sensor chips by injection of 20 μl of ligand solution (20 μg/ml protein in HBS-P-Mn buffer at a flow rate of 10 μl/min). Ligand capture levels were typically 200-300 RU. 2D-VCAM-1 variant polypeptides were diluted in HBS-P-Mn and flowed over ligand-coated sensor chips for 2 min at 30 μl/min, followed by 5 min incubation with in HBS-P-Mn containing no protein at the same flow rate. For 2D-VCAM-1 variant polypeptides having very slow dissociation rates from VLA4-Fc or LPAM-1-Fc, kinetic assays were also conducted using longer dissociation times (e.g., 20 min). Rmax signal levels for 2D-VCAM-1 variant polypeptides ranged from approximately 5-25 RU. Regeneration between cycles was performed by 200 sec incubation with 10 mM glycine buffer (pH 1.7) at 50 μl/min. New chips were subjected to 4-5 cycles of capture/binding/regeneration prior to use in actual experiments. Data from a reference cell containing goat anti-human IgG capture antibody alone was subtracted from data obtained from flow cells containing captured VLA4-Fc or LPAM-1-Fc. Typically, 8 dilutions of 2D-VCAM-1 variant polypeptides ranging from 150 nM to 0.069 nM were analyzed against a blank reference (HBS-P-Mn buffer alone).

[4] = biological target: T2, human LPAM-1-Fc (alpha4-Fc/beta7-Fc …); assay: SPR (BIACORE), LPAM-1-Fc captured by anti-human IgG, 1 mM MnCl2, 1:1 Langmuir
Procedure: as §1

T1 sequence (chain, as listed by the source limits assumed, form in doubt, chain 1 of 2): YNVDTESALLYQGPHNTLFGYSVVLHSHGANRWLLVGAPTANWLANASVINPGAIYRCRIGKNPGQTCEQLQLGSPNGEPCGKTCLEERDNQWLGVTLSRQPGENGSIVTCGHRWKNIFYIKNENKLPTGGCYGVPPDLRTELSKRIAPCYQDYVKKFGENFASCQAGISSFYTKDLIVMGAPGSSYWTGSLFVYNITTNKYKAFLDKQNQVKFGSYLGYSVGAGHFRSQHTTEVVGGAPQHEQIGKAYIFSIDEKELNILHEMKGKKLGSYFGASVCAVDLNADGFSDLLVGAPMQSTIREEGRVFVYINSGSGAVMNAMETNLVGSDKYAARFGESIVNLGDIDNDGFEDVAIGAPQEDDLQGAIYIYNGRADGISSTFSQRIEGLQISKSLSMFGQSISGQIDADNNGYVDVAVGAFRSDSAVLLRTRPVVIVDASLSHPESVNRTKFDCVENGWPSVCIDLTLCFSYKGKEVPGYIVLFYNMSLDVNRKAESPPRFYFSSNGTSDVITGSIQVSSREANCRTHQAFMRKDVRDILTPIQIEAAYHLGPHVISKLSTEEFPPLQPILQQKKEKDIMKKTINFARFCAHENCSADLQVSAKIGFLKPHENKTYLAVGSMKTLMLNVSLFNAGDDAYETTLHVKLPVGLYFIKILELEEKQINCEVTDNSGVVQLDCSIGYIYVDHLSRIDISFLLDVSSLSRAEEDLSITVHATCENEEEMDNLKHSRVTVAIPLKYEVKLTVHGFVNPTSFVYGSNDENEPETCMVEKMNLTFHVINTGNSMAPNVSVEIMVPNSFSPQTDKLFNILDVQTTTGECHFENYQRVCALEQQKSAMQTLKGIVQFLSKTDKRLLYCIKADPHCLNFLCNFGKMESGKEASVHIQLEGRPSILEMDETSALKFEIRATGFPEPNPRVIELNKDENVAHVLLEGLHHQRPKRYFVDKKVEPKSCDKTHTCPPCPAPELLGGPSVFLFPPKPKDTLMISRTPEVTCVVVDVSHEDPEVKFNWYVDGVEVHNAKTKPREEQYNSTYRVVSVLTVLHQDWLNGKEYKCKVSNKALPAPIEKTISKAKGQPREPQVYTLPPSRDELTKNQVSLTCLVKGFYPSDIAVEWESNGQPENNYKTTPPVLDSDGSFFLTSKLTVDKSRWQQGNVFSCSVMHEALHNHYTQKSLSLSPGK
T1 sequence (chain, as listed by the source limits assumed, form in doubt, chain 2 of 2): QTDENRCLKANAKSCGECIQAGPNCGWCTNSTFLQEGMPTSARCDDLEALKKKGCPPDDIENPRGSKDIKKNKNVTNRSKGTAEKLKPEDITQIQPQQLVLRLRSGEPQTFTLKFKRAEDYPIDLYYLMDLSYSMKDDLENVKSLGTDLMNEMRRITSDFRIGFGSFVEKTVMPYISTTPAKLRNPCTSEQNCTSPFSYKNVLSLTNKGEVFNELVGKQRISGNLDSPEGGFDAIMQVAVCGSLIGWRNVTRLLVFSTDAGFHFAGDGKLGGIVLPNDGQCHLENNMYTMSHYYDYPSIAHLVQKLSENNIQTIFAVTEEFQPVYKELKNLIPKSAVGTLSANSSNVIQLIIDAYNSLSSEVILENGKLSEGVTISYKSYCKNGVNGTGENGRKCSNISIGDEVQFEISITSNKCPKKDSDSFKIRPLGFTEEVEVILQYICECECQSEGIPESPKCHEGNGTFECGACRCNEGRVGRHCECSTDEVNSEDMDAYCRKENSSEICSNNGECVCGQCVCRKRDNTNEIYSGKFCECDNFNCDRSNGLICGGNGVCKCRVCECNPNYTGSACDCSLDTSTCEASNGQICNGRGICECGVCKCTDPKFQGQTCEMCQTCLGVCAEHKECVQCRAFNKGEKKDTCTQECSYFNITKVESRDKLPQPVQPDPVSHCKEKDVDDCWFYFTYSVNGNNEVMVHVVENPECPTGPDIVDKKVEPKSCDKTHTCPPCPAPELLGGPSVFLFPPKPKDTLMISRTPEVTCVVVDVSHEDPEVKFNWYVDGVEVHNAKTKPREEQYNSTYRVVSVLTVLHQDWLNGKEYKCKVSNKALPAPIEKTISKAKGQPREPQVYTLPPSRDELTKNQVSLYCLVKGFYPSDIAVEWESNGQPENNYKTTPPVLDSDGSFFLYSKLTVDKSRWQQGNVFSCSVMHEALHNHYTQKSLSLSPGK
T2 sequence (chain, as listed by the source limits assumed, chain 1 of 2): as the sequence (chain, as listed by the source limits assumed, form in doubt, chain 1 of 2) above
T2 sequence (chain, as listed by the source limits assumed, chain 2 of 2): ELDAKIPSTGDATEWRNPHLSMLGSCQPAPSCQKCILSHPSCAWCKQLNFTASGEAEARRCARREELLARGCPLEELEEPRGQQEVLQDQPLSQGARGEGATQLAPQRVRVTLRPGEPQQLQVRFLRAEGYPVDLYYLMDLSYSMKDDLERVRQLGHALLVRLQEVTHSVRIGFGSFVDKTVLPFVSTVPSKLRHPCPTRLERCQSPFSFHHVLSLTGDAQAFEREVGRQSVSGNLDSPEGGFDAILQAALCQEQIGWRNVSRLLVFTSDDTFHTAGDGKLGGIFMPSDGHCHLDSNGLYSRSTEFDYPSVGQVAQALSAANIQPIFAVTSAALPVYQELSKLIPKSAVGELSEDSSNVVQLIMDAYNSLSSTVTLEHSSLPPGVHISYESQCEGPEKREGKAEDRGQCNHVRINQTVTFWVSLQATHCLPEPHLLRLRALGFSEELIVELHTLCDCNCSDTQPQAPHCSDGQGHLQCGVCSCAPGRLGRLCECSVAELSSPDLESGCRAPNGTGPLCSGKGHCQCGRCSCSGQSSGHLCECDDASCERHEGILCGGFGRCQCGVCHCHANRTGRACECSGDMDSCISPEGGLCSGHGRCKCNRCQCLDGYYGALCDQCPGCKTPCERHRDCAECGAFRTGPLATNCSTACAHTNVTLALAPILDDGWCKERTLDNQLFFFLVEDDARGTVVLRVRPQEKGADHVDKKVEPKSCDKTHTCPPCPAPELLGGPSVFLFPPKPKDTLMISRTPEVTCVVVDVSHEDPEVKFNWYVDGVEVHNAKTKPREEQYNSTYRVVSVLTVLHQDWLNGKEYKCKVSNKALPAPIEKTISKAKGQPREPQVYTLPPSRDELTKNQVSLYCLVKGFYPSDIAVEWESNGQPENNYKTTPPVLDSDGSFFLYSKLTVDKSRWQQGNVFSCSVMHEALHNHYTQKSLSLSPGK

Binder	fold-improvement in binding relative to Q38L-2D-VCAM-1 [1]	fold-improvement in binding relative to human 2D-VCAM-1 [1]	fold improvement in binding relative to Q38L-2D-VCAM-1 [2]	Kd [3]	binding affinity for VLA4-Fc relative to human 2D-VCAM-1 [3]	Kd [4]	binding affinity for LPAM-1-Fc relative to human 2D-VCAM-1 [4]
2D-VCAM-1 variant Clone 46 (ligand, also called Clone 046; not shown: His tag) FKIETTPESRYLAQIGDSVSLTCSTTGCESPFFSWRPQLDAPLNGKVTNEGTTSTLTMNPVSFGNEHSYLCTATCESRKLEKGIQVEIYSFPKDPEIHLSGPLEAGKPITVKCSVADVYPFDRLEIDLLKGDHLMKSQEFLEDADRKSLETKSLEVTFTPVIEDIGKVLVCRAKLHIDEMDSVPTVRQAVKELQVYISP	21 fold	172 fold	1 fold	0.123 nM	124 fold	27.2 nM	9 fold
2D-VCAM-1 variant Clone 47 (ligand, also called Clone 047; not shown: His tag) FKIETTPESRYLAQIGDSVSLTCSTTGCESPFFSWRPLLDSPLNGKVTNEGTTSTLTMNPVSFGNEHSYLCTATCESRKLEKGIQVEIYSFPKDPEIHLSGPLEAGKPITVKCSVADVYPFDRLEIDLLKGDHLMKSQEFLEDADRKSLETKSLEVTFTPVIEDIGKVLVCRAKLHIDEMDSVPTVRQAVKELQVYISP	16 fold	128 fold	17 fold	0.148 nM	103 fold	6.54 nM	38 fold
2D-VCAM-1 variant Clone 59 (ligand, also called Clone 059; not shown: His tag) FKIETTPESRYLAQIGDSVSLTCSTTGCESPFFSWRPLLDSPLNGKVTNEGTTSTLTMNPVSFGNEHSYLCTATCESRKLEKGIQVEIYSFPKDPEIHLSGPLEAGKPITVKCSVADVYPFDRLEIDLLKGDHLMKSQEFFEDAAWKSLETKSLEVTFTPVIEDIGKVLVCRAKLHIDEMDSVPTVRQAVKELQVYISP	34 fold	272 fold	80 fold	0.0501 nM	303 fold	0.405 nM	612 fold

Continued, values first:

fold-improvement in binding relative to Q38L-2D-VCAM-1 [1]	fold-improvement in binding relative to human 2D-VCAM-1 [1]	fold improvement in binding relative to Q38L-2D-VCAM-1 [2]	Kd [3]	binding affinity for VLA4-Fc relative to human 2D-VCAM-1 [3]	Kd [4]	binding affinity for LPAM-1-Fc relative to human 2D-VCAM-1 [4]	Binder
1 fold	8 fold	1 fold	1.87 nM	8 fold	20.5 nM	12 fold	Q38L-2D-VCAM-1 (ligand, also called Q38L 2D-VCAM-1 polypeptide; not shown: His tag) FKIETTPESRYLAQIGDSVSLTCSTTGCESPFFSWRTLIDSPLNGKVTNEGTTSTLTMNPVSFGNEHSYLCTATCESRKLEKGIQVEIYSFPKDPEIHLSGPLEAGKPITVKCSVADVYPFDRLEIDLLKGDHLMKSQEFLEDADRKSLETKSLEVTFTPVIEDIGKVLVCRAKLHIDEMDSVPTVRQAVKELQVYISP
		74 fold			0.439 nM	565 fold	2D-VCAM-1 variant Clone 146 (ligand, not shown: small tags and cut ends) FKIETTPESRYLAQIGDSVSLTCSTTGCESPLFFWRPLLDSPLNGKVTNEGTTSTLTMNPVSFGNEHSYLCTARCESRSLEKGIQVEIYSFPKDPEIHLSGPLEAGKPITVKCSVADVYPFDRLEIDLLKGDHLMKSQEFLEDADRKSLETKSLEVTFTPVIEDIGKVLVCRAKLHIDEMDSVPTVRQAVKELQVYISP
